Paper PMC3154423

What was measured:
Test in all cases: ITC
[1] = target: Jun bZIP R263A;Fos bZIP R157A (human;human, UniProt P05412;P01100 252-315;137-200, R263A|R157A)
[2] = target: Jun bZIP R261A;Fos bZIP R157A (human;human, UniProt P05412;P01100 252-315;137-200, R261A|R157A)
[3] = target: Jun bZIP K273A;Fos bZIP K148A (human;human, UniProt P05412;P01100 252-315;137-200, K273A|K148A)
[4] = target: Jun-Jun bZIP WT (human, UniProt P05412 252-315)
[5] = target: Jun bZIP R261A;Fos bZIP R146A (human;human, UniProt P05412;P01100 252-315;137-200, R261A|R146A)
Sequence of Jun bZIP R261A;Fos bZIP R146A (P05412 252-315 R261A, chain 1 of 2): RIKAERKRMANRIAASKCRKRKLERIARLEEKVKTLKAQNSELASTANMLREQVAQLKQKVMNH
Sequence of Jun bZIP R261A;Fos bZIP R146A (P01100 137-200 R146A, chain 2 of 2): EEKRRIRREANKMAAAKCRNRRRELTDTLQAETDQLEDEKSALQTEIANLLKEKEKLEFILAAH

[6] = target: Jun-Jun bZIP R261A (human, UniProt P05412 252-315, R261A)
Sequence of Jun-Jun bZIP R261A (P05412 252-315 R261A): as the sequence (P05412 252-315 R261A, chain 1 of 2) above

[7] = target: Jun bZIP R270A;Fos bZIP R155A (human;human, UniProt P05412;P01100 252-315;137-200, R270A|R155A)
Sequence of Jun bZIP R270A;Fos bZIP R155A (P05412 252-315 R270A, chain 1 of 2): as the sequence (P05412 252-315 R261A, chain 1 of 2) above, with A10R, R19A counted along it
Sequence of Jun bZIP R270A;Fos bZIP R155A (P01100 137-200 R155A, chain 2 of 2): as the sequence (P01100 137-200 R146A, chain 2 of 2) above, with A10R, R19A counted along it

[8] = target: Jun bZIP R259A;Fos bZIP R146A (human;human, UniProt P05412;P01100 252-315;137-200, R259A|R146A)
Sequence of Jun bZIP R259A;Fos bZIP R146A (P05412 252-315 R259A, chain 1 of 2): as the sequence (P05412 252-315 R261A, chain 1 of 2) above, with R8A, A10R counted along it
Sequence of Jun bZIP R259A;Fos bZIP R146A (P01100 137-200 R146A, chain 2 of 2): as the sequence (P01100 137-200 R146A, chain 2 of 2) above

[9] = target: Jun bZIP K273A;Fos bZIP R146A (human;human, UniProt P05412;P01100 252-315;137-200, K273A|R146A)
Sequence of Jun bZIP K273A;Fos bZIP R146A (P05412 252-315 K273A, chain 1 of 2): as the sequence (P05412 252-315 R261A, chain 1 of 2) above, with A10R, K22A counted along it
Sequence of Jun bZIP K273A;Fos bZIP R146A (P01100 137-200 R146A, chain 2 of 2): as the sequence (P01100 137-200 R146A, chain 2 of 2) above

[10] = target: Jun bZIP K268A;Fos bZIP R143A (human;human, UniProt P05412;P01100 252-315;137-200, K268A|R143A)
Sequence of Jun bZIP K268A;Fos bZIP R143A (P05412 252-315 K268A, chain 1 of 2): as the sequence (P05412 252-315 R261A, chain 1 of 2) above, with A10R, K17A counted along it
Sequence of Jun bZIP K268A;Fos bZIP R143A (P01100 137-200 R143A, chain 2 of 2): as the sequence (P01100 137-200 R146A, chain 2 of 2) above, with R7A, A10R counted along it

[11] = target: Jun bZIP K273A;Fos bZIP R158A (human;human, UniProt P05412;P01100 252-315;137-200, K273A|R158A)
Sequence of Jun bZIP K273A;Fos bZIP R158A (P05412 252-315 K273A, chain 1 of 2): as the sequence (P05412 252-315 R261A, chain 1 of 2) above, with A10R, K22A counted along it
Sequence of Jun bZIP K273A;Fos bZIP R158A (P01100 137-200 R158A, chain 2 of 2): as the sequence (P01100 137-200 R146A, chain 2 of 2) above, with A10R, R22A counted along it

[12] = target: Jun-Jun bZIP K258A (human, UniProt P05412 252-315, K258A)
Sequence of Jun-Jun bZIP K258A (P05412 252-315 K258A): as the sequence (P05412 252-315 R261A, chain 1 of 2) above, with K7A, A10R counted along it

[13] = target: Jun bZIP R270A;Fos bZIP R157A (human;human, UniProt P05412;P01100 252-315;137-200, R270A|R157A)
Sequence of Jun bZIP R270A;Fos bZIP R157A (P05412 252-315 R270A, chain 1 of 2): as the sequence (P05412 252-315 R261A, chain 1 of 2) above, with A10R, R19A counted along it
Sequence of Jun bZIP R270A;Fos bZIP R157A (P01100 137-200 R157A, chain 2 of 2): as the sequence (P01100 137-200 R146A, chain 2 of 2) above, with A10R, R21A counted along it

[14] = target: Jun bZIP R261A;Fos bZIP K153A (human;human, UniProt P05412;P01100 252-315;137-200, R261A|K153A)
Sequence of Jun bZIP R261A;Fos bZIP K153A (P05412 252-315 R261A, chain 1 of 2): as the sequence (P05412 252-315 R261A, chain 1 of 2) above
Sequence of Jun bZIP R261A;Fos bZIP K153A (P01100 137-200 K153A, chain 2 of 2): as the sequence (P01100 137-200 R146A, chain 2 of 2) above, with A10R, K17A counted along it

[15] = target: Jun bZIP R272A;Fos bZIP R143A (human;human, UniProt P05412;P01100 252-315;137-200, R272A|R143A)
Sequence of Jun bZIP R272A;Fos bZIP R143A (P05412 252-315 R272A, chain 1 of 2): as the sequence (P05412 252-315 R261A, chain 1 of 2) above, with A10R, R21A counted along it
Sequence of Jun bZIP R272A;Fos bZIP R143A (P01100 137-200 R143A, chain 2 of 2): as the sequence (P01100 137-200 R146A, chain 2 of 2) above, with R7A, A10R counted along it

[16] = target: Jun bZIP R261A;Fos bZIP R158A (human;human, UniProt P05412;P01100 252-315;137-200, R261A|R158A)
Sequence of Jun bZIP R261A;Fos bZIP R158A (P05412 252-315 R261A, chain 1 of 2): as the sequence (P05412 252-315 R261A, chain 1 of 2) above
Sequence of Jun bZIP R261A;Fos bZIP R158A (P01100 137-200 R158A, chain 2 of 2): as the sequence (P01100 137-200 R146A, chain 2 of 2) above, with A10R, R22A counted along it

[17] = target: Jun bZIP R263A;Fos bZIP R158A (human;human, UniProt P05412;P01100 252-315;137-200, R263A|R158A)
Sequence of Jun bZIP R263A;Fos bZIP R158A (P05412 252-315 R263A, chain 1 of 2): as the sequence (P05412 252-315 R261A, chain 1 of 2) above, with A10R, R12A counted along it
Sequence of Jun bZIP R263A;Fos bZIP R158A (P01100 137-200 R158A, chain 2 of 2): as the sequence (P01100 137-200 R146A, chain 2 of 2) above, with A10R, R22A counted along it

Sequence of Jun bZIP K273A;Fos bZIP K148A (P05412 252-315 K273A, chain 1 of 2): as the sequence (P05412 252-315 R261A, chain 1 of 2) above, with A10R, K22A counted along it
Sequence of Jun bZIP K273A;Fos bZIP K148A (P01100 137-200 K148A, chain 2 of 2): as the sequence (P01100 137-200 R146A, chain 2 of 2) above, with A10R, K12A counted along it
Sequence of Jun bZIP R261A;Fos bZIP R157A (P05412 252-315 R261A, chain 1 of 2): as the sequence (P05412 252-315 R261A, chain 1 of 2) above
Sequence of Jun bZIP R261A;Fos bZIP R157A (P01100 137-200 R157A, chain 2 of 2): as the sequence (P01100 137-200 R146A, chain 2 of 2) above, with A10R, R21A counted along it
Sequence of Jun-Jun bZIP WT (P05412 252-315): as the sequence (P05412 252-315 R261A, chain 1 of 2) above, with A10R counted along it
Sequence of Jun bZIP R263A;Fos bZIP R157A (P05412 252-315 R263A, chain 1 of 2): as the sequence (P05412 252-315 R261A, chain 1 of 2) above, with A10R, R12A counted along it
Sequence of Jun bZIP R263A;Fos bZIP R157A (P01100 137-200 R157A, chain 2 of 2): as the sequence (P01100 137-200 R146A, chain 2 of 2) above, with A10R, R21A counted along it

B1: TRE duplex 15-mer (dsDNA)
DNA 1: CGCGTGACTCACCCC
DNA 2: GGGGTGAGTCACGCG
- Kd [1]: 1740 ± 30 nM
- Kd [2]: 890 ± 30 nM
- Kd [3]: 760 ± 10 nM
- Kd [4]: 190 ± 20 nM
- Kd [5]: 1030 ± 20 nM
- Kd [6]: 380 ± 20 nM
- Kd [7]: 28900 ± 470 nM
- Kd [8]: 2260 ± 140 nM
- Kd [9]: 680 ± 10 nM
- Kd [10]: 720 ± 10 nM
- Kd [11]: 680 ± 30 nM
- Kd [12]: 4430 ± 190 nM
- Kd [13]: 3560 ± 130 nM
- Kd [14]: 610 ± 50 nM
- Kd [15]: 910 ± 70 nM
- Kd [16]: 760 ± 20 nM
- Kd [17]: 1120 ± 70 nM
